{"source": "patent US20090297504A1", "about": "(published 2009)", "binders": {"B1": {"name": "BCMA ECD from baculovirus expression (human BCMA residues 4-53, His-tagged) (receptor, not shown: small tags and cut ends)", "chain": "MAGQCSQNEYFDSLLHACIPCQLRCSSNTPPLTCQRYCNASVTNSVKGTN", "modifications": "not fully specified (N-terminus); ends and bridges not checked; also: mixture of glycosylated and non-glycosylated species", "notes": "also called BCMA(baculovirus); baculovirus BCMA"}, "B2": {"name": "BCMA-Fc (BCMA(wt)-Fc immunoadhesin) (Fc fusion, not shown: a dimerising Fc or GST)", "chain": "AGQCSQNEYFDSLLHACIPCQLRCSSNTPPLTCQRYCNASVTNSVKG", "notes": "also called wt BCMA-Fc; BCMA-Fc wt"}}, "key": {"[1]": {"biological_target": "T1, Human BAFF (residues 82-285) (human, UniProt Q9Y275 82-285)", "T1 construct": "also called BAFF82-285", "T1 sequence (Q9Y275 82-285)": "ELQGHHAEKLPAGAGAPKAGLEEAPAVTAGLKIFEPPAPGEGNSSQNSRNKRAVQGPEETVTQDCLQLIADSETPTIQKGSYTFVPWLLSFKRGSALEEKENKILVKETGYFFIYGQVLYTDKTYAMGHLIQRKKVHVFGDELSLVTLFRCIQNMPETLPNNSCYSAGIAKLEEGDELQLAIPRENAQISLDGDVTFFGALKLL", "assay": "SPR (BIAcore 3000), BAFF immobilized, receptor as analyte", "protocol": "Measurement of binding constants for receptors to ligands. […] CM5 chips from BIAcore were docked according to manufacturer instructions. Then, BIAcore system was primed with 0.2 μm filtered buffer containing 10 mM Hepes pH 7.2, 150 mM NaCl, 0.005% Tween20. After buffer priming, the flow cells were normalized with 70% glycerol. Each flow cell surface was activated individually in preparation for linkage of the ligand to the chip with a 1:1 mixture of EDC(N-ethyl-N′-(3-dimethyl aminopropyl)-carbodiimide hydrochloride) and NHS(N-hydroxysuccinimide). […] Generally, the ligand to be immobilized (30 μg/ml in 10 mM NaOAc, pH 5 buffer) was injected into the system at 40 μl/min. Once approximately 400 RU was generated, the flow cell was blocked with ethanolamine. […] The system was then primed again.\nThe ligand-receptor complex was allowed to dissociate by washing the flow cell at 30 μl/min for 600 seconds. Alternatively, if several binding measurements over the same flow cell were to be performed, the ligand-receptor complex was allowed to dissociate by washing the flow cell at 30 μl/min for 900 seconds. Sensorgrams were recorded for each binding assay. A 1:1 Langmuir binding equation was used to simultaneously fit the association and dissociation rates of the ligand-analyte interactions. kₐ, kd, KD were calculated using curve fit analysis software provided with the BiaCore instrument"}, "[2]": {"biological_target": "Murine APRIL (K104-L241) thioredoxin fusion protein (murine) (UniProt Q9D777)", "sequence (Q9D777 104-241, form in doubt)": "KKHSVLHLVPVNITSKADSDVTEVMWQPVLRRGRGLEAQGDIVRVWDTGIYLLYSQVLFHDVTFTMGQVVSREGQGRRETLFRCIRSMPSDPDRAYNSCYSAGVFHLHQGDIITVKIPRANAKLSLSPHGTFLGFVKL", "assay": "SPR (BIAcore 3000), APRIL immobilized, receptor as analyte, 1:1 model"}, "[3]": {"biological_target": "T1, Human BAFF (residues 82-285)", "assay": "competition ELISA; immobilized BAFF, biotinylated miniBR3 tracer (FIG. 7)", "protocol": "The plate was washed with PBS and blocked for 1 hr with 200 μl of 0.2% BSA in PBS at room temperature. […] The plate was washed with PBS/Tween-20 and incubated with 100 μl/well of 0.1 U/ml Streptavidin-POD (Boehringer Mannheim) for 15 minutes at room temperature. After washing the plate with PBS/0.05% Tween-20 followed by a final wash in PBS, the plate was incubated for 5 min with 100 μl/well PBS substrate solution containing 0.8 mg/ml OPD (Sigma) and 0.01% H₂O₂."}}, "note": "Where no end group is shown, it is not given here."}
{"binder": "B1", "values": [{"measurement": "binding result", "setting": "[1]", "value": "no binding (tested: analyte 6.25 nM to 200 nM)"}]}
{"binder": "B2", "values": [{"measurement": "koff", "setting": "[2]", "value": 0.0001, "unit": "s⁻¹"}, {"measurement": "IC50", "setting": "[3]", "value": "7 to 10", "unit": "nM"}]}
